These results are taken from patent EP4796681A2 (Daiichi Sankyo Co., Ltd., dated 2026).

The target of test [1] is T1, Chymotrypsin (Worthington Biochemical Corp.) (Bos taurus (Bovine), UniProt P00766 1-13; P00766 16-146; P00766 149-245). The test can be described thus: cell-based or functional assay.
Test [2] has as its target T1, Chymotrypsin (Worthington Biochemical …). The test can be described thus: ELISA, chymotrypsin coated on plate, detection by HRP-conjugated S-Tag antibody. Background: An ELISA detects its analyte on a solid surface through an enzyme-linked reagent.

As a reminder, the EC50 is the concentration needed to bring the measured effect to its halfway point. Lower therefore signals an effect from little substance.

B1: α-chymotrypsin-binding peptide No. 2 (SPINK2 mutant) (designed binder)
chain: DPQFGLFSKYRTPNCMRHRRHFCTMVYKPVCGSDMSTYANECTLCMKIREGGHNIKIIRNGPC
notes: Expressed in E. coli Origami B (DE3) as thioredoxin/His fusion, thioredoxin tag cleaved by thrombin; mainly monomer; also called clone 2; not shown: vector-derived N-terminal residues left after thrombin cleavage of the pET 32a (varied) fusion, including the S-tag used
For the molecule B1, in test [1], the “IC50 of chymotrypsin inhibitory activity (Pierce Quantitative Protease Assay Kit)” value amounted to 815 nM. The molecule further had a 50% effective concentration (EC50) in test [2] of 18.3 nM.

B2: α-chymotrypsin-binding peptide No. 6 (SPINK2 mutant) (designed binder)
chain: DPQFGLFSKYRTPNCRRWLLPWCTYKYKPVCGSDMSTYANECTLCMKIREGGHNIKIIRNGPC
notes: Expressed in E. coli Origami B (DE3) as thioredoxin/His fusion, thioredoxin tag cleaved by thrombin; mainly monomer; also called clone 6; not shown: vector-derived N-terminal residues left after thrombin cleavage of the pET 32a (varied) fusion, including the S-tag used
Regarding B2, the “IC50 of chymotrypsin inhibitory activity (Pierce Quantitative Protease Assay Kit)” value in test [1] came out at 374 nM. Moreover, the EC50 in test [2] is 17.8 nM.
